Reference: doi:10.1101/2021.04.01.438122

Molecular target: human Angiotensin Converting Enzyme 2 (amino acids 19-615) fused to human IgG Fc (human) (UniProt Q9BYF1)
Experiment: SPR

Substance: SARS-CoV-2 receptor binding domain (RBD amino acids 330-532) with the Y489R mutation (domain or fragment)
- reduction of binding against RBD-WT: 94%
